Laboratory results from patent US7871610B2, “Antibodies to Tie1 ectodomain” (Dyax Corp., priority 2003, dated 2011).

Assays:
[1] = target: Tie1 (Homo sapiens, UniProt P35590); experiment: Immunoprecipitation from HUVEC lysates; format: binding; parameters: endogenous in cells; host or cells: HUVEC; details: 5 μg/ml antibody
Description: The conclusion from this study was that platelets represent a large pool of Tie-1 immunoreactivity which could present a problem for development of Tie1 as a therapeutic target. […] Both, activated and inactivated platelets were tested. Anti-Tie-1 antibodies B2, D11, E3, the goat polyclonal AF619 (R&D) and negative control antibodies anti-FITC and anti-Streptavidin were used. HUVECS were retrieved from culture dishes by trypsinization and platelets were prepared with the platelet GelSep kit (Biocytex, Marseille, France) kit according to the guidelines of the manufacturer. Per immunoprecipitation experiment 3-5e10^6 and 3e10^8 cells platelets were used for each antibody tested. Platelets and cells were washed with PBS and spun down at 1400 rpm for 4 minutes and supernatant was removed. Then cells were lysed in 1 ml lysis buffer containing 50 mM Tris HCL pH 7.5, 150 mM NaCl, 0.5% Deoxycholic acid (DOC) and 0.5% NP-40 for 5 minutes. The lysed cells were spin down for 10 minutes at 14.000 rpm and 5 μg/ml antibody was added to the supernatant and incubated at 4° C. on a rotator. 100 μl/sample protein A beads (Uppsala, Sweden) were washed 3 times with lysis buffer (centrifugation speed: 1.5 seconds, 2000 rpm) then cell lysates incubated with antibody were added for 30 minutes 4° C. […] In Western blotting Tie-1 was detected with the polyclonal goat anti-Tie-1 antibody.

[2] = target: T1, Mouse Tie 1-Fc (Mus musculus, UniProt Q06806); experiment: BIAcore, E3 Fabs on mouse Tie1-Fc; format: binding; details: Fab, mouse Tie1-Fc
T1 sequence (Q06806 23-755 limits assumed): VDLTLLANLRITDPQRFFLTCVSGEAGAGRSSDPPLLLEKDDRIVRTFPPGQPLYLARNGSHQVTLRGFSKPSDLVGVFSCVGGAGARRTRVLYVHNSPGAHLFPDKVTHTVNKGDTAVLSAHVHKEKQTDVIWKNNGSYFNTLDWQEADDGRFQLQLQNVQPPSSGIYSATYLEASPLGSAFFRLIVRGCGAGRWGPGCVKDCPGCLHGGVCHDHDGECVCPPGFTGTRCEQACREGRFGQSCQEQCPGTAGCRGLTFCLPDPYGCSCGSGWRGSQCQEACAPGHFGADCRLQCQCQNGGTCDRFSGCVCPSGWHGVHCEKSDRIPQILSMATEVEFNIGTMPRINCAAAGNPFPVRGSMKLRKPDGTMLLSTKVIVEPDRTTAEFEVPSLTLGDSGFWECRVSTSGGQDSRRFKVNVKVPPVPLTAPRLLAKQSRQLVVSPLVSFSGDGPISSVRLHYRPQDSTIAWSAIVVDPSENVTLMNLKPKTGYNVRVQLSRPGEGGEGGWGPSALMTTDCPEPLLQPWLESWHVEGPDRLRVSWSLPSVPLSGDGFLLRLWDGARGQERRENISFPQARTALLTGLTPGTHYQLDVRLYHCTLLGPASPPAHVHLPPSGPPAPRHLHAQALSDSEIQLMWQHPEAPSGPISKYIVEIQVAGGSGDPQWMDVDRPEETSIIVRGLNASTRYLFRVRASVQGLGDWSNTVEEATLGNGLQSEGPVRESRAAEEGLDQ
Description: Mouse Tie 1-Fc antigen (0.5 mg/ml stock) was biotinylated using established procedures and after dilution 1/100 fold in HBS this was then used for capturing to a streptavidin chip. This was coated to a resonance value of 740RU. All analysis was performed in HBS buffer. The parental Fab E3 0.587 mg/ml (11740 nM) was diluted 1/587 in HBS+BSA to obtain a stock of 20 nM and the germlined Fab E3 0.025 mg/ml (500 nM) was diluted 1/25 in HBS+BSA to obtain a stock of 20 nM. Serial dilutions were made of each Fab preparation to obtain 10 nM, 5 nM, 2.5 nM, and 1.25 nM. For the association phase samples were injected at 30 μl/min for 4 minutes using kinject program. This was followed by a 10 minutes dissociation phase, any remaining sample was stripped from the Tie-1 Fc surface at a flow of 50 μl/min with a single injection of 50 mM NaOH+1 M NaCl for 18 seconds. All samples were run and analyzed in duplicate.
Sensorgrams were analyzed using the simultaneous ka/kd fitting program with 1:1 model in the BIAEVALUATION™ software 3.1.

[3] = target: T2, mouse Tie1 (Mus musculus, UniProt Q06806); experiment: Flow cytometry binding to mouse endothelial cell lines; details: MS1, Le-2, Bend3, SVEC and Tie-1 transfected Le-2 cells; biotinylated antibody
T2 construct: host or cells: mouse endothelial cell lines MS1, Le-2, Bend3, SVEC
T2 sequence (Q06806 23-1134): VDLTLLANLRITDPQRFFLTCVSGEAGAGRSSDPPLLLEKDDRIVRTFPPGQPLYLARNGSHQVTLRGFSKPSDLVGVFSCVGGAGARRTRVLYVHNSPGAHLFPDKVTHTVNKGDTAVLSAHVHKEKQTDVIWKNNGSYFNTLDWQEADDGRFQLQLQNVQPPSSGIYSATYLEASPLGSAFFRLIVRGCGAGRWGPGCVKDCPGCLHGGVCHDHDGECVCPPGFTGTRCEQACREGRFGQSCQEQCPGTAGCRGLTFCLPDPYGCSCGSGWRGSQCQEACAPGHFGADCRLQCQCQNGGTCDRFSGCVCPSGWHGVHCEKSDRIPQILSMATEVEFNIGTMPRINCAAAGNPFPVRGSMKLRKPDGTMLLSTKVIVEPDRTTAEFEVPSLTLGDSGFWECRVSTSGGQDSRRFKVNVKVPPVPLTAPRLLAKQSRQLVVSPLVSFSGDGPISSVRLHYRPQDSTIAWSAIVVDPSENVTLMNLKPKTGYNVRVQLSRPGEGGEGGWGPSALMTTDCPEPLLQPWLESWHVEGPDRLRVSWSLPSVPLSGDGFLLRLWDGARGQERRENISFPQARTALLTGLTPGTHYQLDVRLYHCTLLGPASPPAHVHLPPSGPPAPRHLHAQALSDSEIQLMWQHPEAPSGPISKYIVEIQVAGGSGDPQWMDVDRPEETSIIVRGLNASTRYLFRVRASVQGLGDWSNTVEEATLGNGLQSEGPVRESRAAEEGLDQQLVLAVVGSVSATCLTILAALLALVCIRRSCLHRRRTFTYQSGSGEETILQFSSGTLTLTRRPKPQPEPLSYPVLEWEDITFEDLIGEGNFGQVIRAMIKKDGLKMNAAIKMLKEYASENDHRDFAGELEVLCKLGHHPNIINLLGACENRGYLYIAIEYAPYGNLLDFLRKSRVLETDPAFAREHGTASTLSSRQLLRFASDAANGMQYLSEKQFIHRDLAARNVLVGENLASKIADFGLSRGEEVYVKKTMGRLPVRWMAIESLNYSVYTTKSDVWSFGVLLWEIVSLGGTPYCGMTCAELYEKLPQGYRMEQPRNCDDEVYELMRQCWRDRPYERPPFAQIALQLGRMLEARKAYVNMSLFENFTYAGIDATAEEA
Description: Specific binding of the Tie-1 antibodies and of control Mabs to mouse endothelial cells was measured by flow cytometry analysis (FACSscan, Becton Dickinson, Oxnard, Epics, Coulter). Mouse endothelial cell lines MS1, Le-2, Bend3, SVEC (ATCC, Rockville) and Tie-1 transfected Le-2 cells were stained. Cell staining was modified from existing protocols. About 200,000 cells were used in each experiment: after trypsinization, cells were washed one time in PBS and resuspended PBS, 10% Heat inactivated human serum (incubation buffer). To test specificity, antibodies were incubated at different dilutions for 1 h at room temperature. Cells were spun down by centrifugation for 3 min at 611 g. Between incubations cells were washed twice with PBS. […] After the final incubation step bound antibodies were detected by means of flow cytometry on a FACSCan and Epics Altra (Becton Dickinson, Oxnard, Coulter) and results analyzed.
Intracellular Tie-1 was measured as described above, except for the addition of Saponin to the incubation buffer to a final concentration of 0.1% during incubations. […] The binding pattern in mouse cell lines detected by flow cytometry is different from the binding pattern in HUVEC in that in mouse cells there is a greater cell surface staining than that compared to primary human endothelial cell lines.

Sequence of Tie1 (P35590 22-1138): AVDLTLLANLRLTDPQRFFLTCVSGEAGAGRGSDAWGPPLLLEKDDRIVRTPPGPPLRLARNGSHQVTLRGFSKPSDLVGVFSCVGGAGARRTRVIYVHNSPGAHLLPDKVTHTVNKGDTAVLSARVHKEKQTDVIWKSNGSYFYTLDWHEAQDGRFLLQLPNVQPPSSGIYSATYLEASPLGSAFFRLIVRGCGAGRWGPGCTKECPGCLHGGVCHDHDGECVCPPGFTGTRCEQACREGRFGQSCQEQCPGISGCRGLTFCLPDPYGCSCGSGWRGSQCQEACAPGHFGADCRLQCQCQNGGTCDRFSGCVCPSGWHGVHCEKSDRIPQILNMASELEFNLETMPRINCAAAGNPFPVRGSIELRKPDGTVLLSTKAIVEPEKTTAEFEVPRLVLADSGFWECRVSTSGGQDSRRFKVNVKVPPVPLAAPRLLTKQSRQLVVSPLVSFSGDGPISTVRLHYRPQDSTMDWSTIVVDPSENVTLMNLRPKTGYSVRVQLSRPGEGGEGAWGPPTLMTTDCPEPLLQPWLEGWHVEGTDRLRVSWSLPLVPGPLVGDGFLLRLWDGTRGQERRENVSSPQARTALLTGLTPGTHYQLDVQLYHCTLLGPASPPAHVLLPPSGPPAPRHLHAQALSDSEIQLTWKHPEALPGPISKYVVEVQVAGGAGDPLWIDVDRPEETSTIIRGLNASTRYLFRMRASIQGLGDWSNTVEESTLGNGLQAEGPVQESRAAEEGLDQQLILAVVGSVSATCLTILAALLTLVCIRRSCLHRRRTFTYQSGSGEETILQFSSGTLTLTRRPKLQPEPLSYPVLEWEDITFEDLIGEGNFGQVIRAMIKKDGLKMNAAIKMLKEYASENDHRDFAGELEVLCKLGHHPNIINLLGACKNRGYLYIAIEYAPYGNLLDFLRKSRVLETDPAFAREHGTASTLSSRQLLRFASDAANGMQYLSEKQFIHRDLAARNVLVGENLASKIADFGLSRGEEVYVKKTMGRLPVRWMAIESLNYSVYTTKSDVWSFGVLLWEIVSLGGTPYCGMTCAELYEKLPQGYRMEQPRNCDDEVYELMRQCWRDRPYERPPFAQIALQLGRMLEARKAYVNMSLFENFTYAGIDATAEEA

B1: E3: human anti-Tie1 antibody from Fab phage library; HC SEQ ID NO:114, LC SEQ ID NO:116 (antibody, V domains shown)
VH: EVQLLESGGGLVQPGGSLRLSCAASGFTFSMYGMVWVRQAPGKGLEWVSVISPSGGNTGYADSVKGRFTISRDNSKNTLYLQVNSLRAEDTAVYYCARAPRGYSYGYYYWGQGTLVTVSSASTKGPSVFPLAPSSKSTSGG
VL: DIQMTQSPLSLSASVGDRVTITCRASQGIGHYLAWYQQKPGKVPKLLIYTASTLQSGVPSRFSGSGSGTDFTLTINSLQPEDVATYYCQQFNSYPHTFGQGTRLDIK
modifications: Synthetically generated peptide
[1]
  immunoprecipitation of Tie-1 from HUVEC: able to immune precipitate Tie-1 in HUVEC
[2]
  effect of germlining on binding activity: minimal effect on the binding activity
[3]
  binding to mouse endothelial cell lines: binds to mouse endothelial cell lines
